Data: PMC4198130, “Protein Interactions of the Vesicular Glutamate Transporter VGLUT1” (PLoS ONE, 2014)

What was measured:
[1] = molecular target: T1, GST fusion of the SH3 domain of Fyn (SH3 domain array) (human, UniProt P06241 82-143); experiment: peptide or protein array; TranSignal SH3 and WW Domain Arrays (Panomics/Affymetrix): purified GST fusions of human SH3 or WW domains immobilised on a membrane, in duplicate at 100 ng; His-PP1 in solution, detected with anti-His antibody (methods: purified His-PP1; results and legend: bacterial extract with the tagged protein); settings: both partners purified
T1 construct: Fyn, human, SH3 domain; source: bought: Panomics/Affymetrix TranSignal SH3 Domain Array (purified GST fusion on a membrane)
T1 sequence (P06241 82-143): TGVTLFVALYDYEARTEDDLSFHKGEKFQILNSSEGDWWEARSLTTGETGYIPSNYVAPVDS

GST-Lyn-SH3 (Panomics) [2] = molecular target: T2, GST-Lyn-SH3 (Panomics) (human, UniProt P07948 63-123); experiment: as above; settings: both partners purified
T2 construct: Lyn, human, SH3 domain; also called SH3 domain of Lyn; source: bought: Panomics (purified GST-Lyn-SH3 protein; also on the TranSignal SH3 Domain Array)
T2 sequence (P07948 63-123): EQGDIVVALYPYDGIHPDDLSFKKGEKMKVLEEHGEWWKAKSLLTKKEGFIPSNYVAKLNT

[3] = molecular target: GST fusion of the SH3 domain of Src (SH3 domain array) (human, UniProt P12931 84-145); experiment: as above; settings: both partners purified
[4] = molecular target: T3, GST fusion of the SH3 domain of Hck (SH3 domain array) (human, UniProt P08631 78-138); experiment: as above; settings: both partners purified
T3 construct: Hck, human, SH3 domain; source: bought: Panomics/Affymetrix TranSignal SH3 Domain Array (purified GST fusion on a membrane)
T3 sequence (P08631 78-138): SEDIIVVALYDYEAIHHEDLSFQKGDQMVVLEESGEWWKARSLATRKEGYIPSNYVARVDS

[5] = molecular target: T4, GST fusion of the SH3 domain of sorting nexin 9 (Panomics) (human, UniProt Q9Y5X1 1-62); experiment: as above; settings: both partners purified
T4 construct: sorting nexin 9, human, SH3 domain; also called SNX9; source: bought: Panomics/Affymetrix (on the TranSignal SH3 Domain Array; GST fusion for pull-down)
T4 sequence (Q9Y5X1 1-62): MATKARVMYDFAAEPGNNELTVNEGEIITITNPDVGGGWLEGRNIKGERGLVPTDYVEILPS

[6] = molecular target: T5, GST fusion of the SH3 domain of EPS8 (Panomics) (human, UniProt Q12929 531-590); experiment: as above; settings: both partners purified
T5 construct: EPS8, human, SH3 domain; source: bought: Panomics/Affymetrix (on the TranSignal SH3 Domain Array; GST fusion for pull-down)
T5 sequence (Q12929 531-590): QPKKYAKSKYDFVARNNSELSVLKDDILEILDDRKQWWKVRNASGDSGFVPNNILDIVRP

GST-Lyn-SH3 (Panomics) [7] = molecular target: T2, GST-Lyn-SH3 (Panomics); experiment: pull-down; GST fusions of SH3 or WW domains on glutathione sepharose beads, incubated with detergent-solubilized (2% TX-100) rat brain extract, RT 60 min; bound VGLUT1 by immunoblot, band intensity normalised to lysate; settings: one partner purified
[8] = molecular target: T6, GST fusion of the second SH3 domain of Nck1 (human, UniProt P16333 106-165); experiment: as above; settings: one partner purified
T6 construct: Nck1, human, second SH3 domain (D2); also called Nck1 D2

[9] = molecular target: T7, GST fusion of the third SH3 domain of Nck1 (human, UniProt P16333 190-252); experiment: as above; settings: one partner purified
T7 construct: Nck1, human, third SH3 domain (D3); also called Nck1 D3

[10] = molecular target: T8, GST fusion of the first SH3 domain of Nck2 (human, UniProt O43639 2-61); experiment: as above; settings: one partner purified
T8 construct: Nck2, human, first SH3 domain (D1); also called Nck2 D1
T8 sequence (O43639 2-61): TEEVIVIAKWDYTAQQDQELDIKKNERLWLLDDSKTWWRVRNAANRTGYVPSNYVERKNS

[11] = molecular target: T9, GST fusion of the SH3 domain of human Lyn (pGEX, from Clifford Lowell) (human, UniProt P07948 63-123); experiment: as above; settings: one partner purified
T9 construct: Lyn, human, SH3 domain; That the pGEX constructs from C; also called GST-Lyn
T9 sequence (P07948 63-123): as the sequence (P07948 63-123) above

[12] = molecular target: T10, GST fusion of the SH3 domain of human Fyn (pGEX, from Clifford Lowell) (human, UniProt P06241 82-143); experiment: as above; settings: one partner purified
T10 construct: Fyn, human, SH3 domain; also called GST-Fyn
T10 sequence (P06241 82-143): as the sequence (P06241 82-143) above

binding result [1] | binding result (GST-Lyn-SH3 (Panomics) [2]) | binding result [3] | binding result [4] | binding result [5] | binding result [6] | band intensity normalised to lysate (GST-Lyn-SH3 (Panomics) [7]) [a.u.] | band intensity normalised to lysate [8] [a.u.] | band intensity normalised to lysate [9] [a.u.] | band intensity normalised to lysate [10] [a.u.] | band intensity normalised to lysate [11] [a.u.] | band intensity normalised to lysate [12] [a.u.] | Binder
binds | binds | binds | binds | binds | binds |  |  |  |  |  |  | HDQLAGSDESEMEDEVEPPGAPPAPPPSYGATHSTVQ (domain or fragment, rat, UniProt Q62634 513-549, looked up, VGLUT1 (vesicular glutamate transporter 1), rat, amino acids 513-549 of the C-terminus (acidic cluster, first polyproline domain PP1, PEST); Cloned in the Ligand Expression Vector (Panomics/Affymetrix); also called His-PP1; His-VGLUT1 PP1; source: E. coli, purified (Ni-NTA, imidazole elution, dialysis) by the methods; soluble bacterial extract by the results and the legend) [His-tagged VGLUT1 C-terminal peptide (amino acids 513-549)]
 |  |  |  |  |  | 0.718 | 0.763 | 0.183 | 0.103 | 0.877 | 0.362 | VGLUT1 from rat brain extract (natural protein, rat (endogenous in rat brain), UniProt Q62634 1-560, looked up, VGLUT1, endogenous in rat brain; source: endogenous, detergent-solubilized rat brain extract) MEFRQEEFRKLAGRALGRLHRLLEKRQEGAETLELSADGRPVTTHTRDPPVVDCTCFGLPRRYIIAIMSGLGFCISFGIRCNLGVAIVSMVNNSTTHRGGHVVVQKAQFNWDPETVGLIHGSFFWGYIVTQIPGGFICQKFAANRVFGFAIVATSTLNMLIPSAARVHYGCVIFVRILQGLVEGVTYPACHGIWSKWAPPLERSRLATTAFCGSYAGAVVAMPLAGVLVQYSGWSSVFYVYGSFGIFWYLFWLLVSYESPALHPSISEEERKYIEDAIGESAKLMNPVTKFNTPWRRFFTSMPVYAIIVANFCRSWTFYLLLISQPAYFEEVFGFEISKVGLVSALPHLVMTIIVPIGGQIADFLRSRHIMSTTNVRKLMNCGGFGMEATLLLVVGYSHSKGVAISFLVLAVGFSGFAISGFNVNHLDIAPRYASILMGISNGVGTLSGMVCPIIVGAMTKHKTREEWQYVFLIASLVHYGGVIFYGVFASGEKQPWAEPEEMSEEKCGFVGHDQLAGSDESEMEDEVEPPGAPPAPPPSYGATHSTVQPPRPPPPVRDY
